The values that follow come from patent US20070078092A1 (CUREGENICS, published 2007).

The assay concerns the target protein kinase B (PKB). The assay can be described thus: cell-based or functional assay.

Numbered stars: 1 amine (or outer) side, 2 acyl side, 3 side chain; on linkers, the order of the positions; unused ones are H or OH. Square brackets hold non-standard residues; d marks the D form. * marks the point of attachment. Cholesteryloxycarbonyl = CC(C)CCC[C@@H](C)[C@H]1CC[C@H]2[C@@H]3CC=C4C[C@@H](OC(=O)*)CC[C@]4(C)[C@H]3CC[C@]12C; Ser(Me) = COC[C@H](N[*:1])C(=O)[*:2]; hLeu = CC(C)CC[C@H](N)C(=O)O; Orn = NCCC[C@H](N)C(=O)O; Nva = CCC[C@H](N)C(=O)O; Dap = NC[C@H](N)C(=O)O

B1: PTR 6332 (peptide)
peptide: Cholesteryloxycarbonyl-GGGGRPR[Nva]Y[Dap][hLeu]-NH2
SMILES: CCC[C@H](NC(=O)[C@H](CCCNC(=N)N)NC(=O)[C@@H]1CCCN1C(=O)[C@H](CCCNC(=N)N)NC(=O)CNC(=O)CNC(=O)CNC(=O)CNC(=O)O[C@H]1CC[C@@]2(C)C(=CC[C@H]3[C@@H]4CC[C@H]([C@H](C)CCCC(C)C)[C@@]4(C)CC[C@@H]32)C1)C(=O)N[C@@H](Cc1ccc(O)cc1)C(=O)N[C@@H](CN)C(=O)N[C@@H](CCC(C)C)C(N)=O
As for B1, the “IC50, in vitro kinase assay PKB” value is 1000 nM.

B2: PTR 6328 (peptide)
peptide: Cholesteryloxycarbonyl-GGRPR[Nva]Y[Dap][hLeu]-NH2
SMILES: CCC[C@H](NC(=O)[C@H](CCCNC(=N)N)NC(=O)[C@@H]1CCCN1C(=O)[C@H](CCCNC(=N)N)NC(=O)CNC(=O)CNC(=O)O[C@H]1CC[C@@]2(C)C(=CC[C@H]3[C@@H]4CC[C@H]([C@H](C)CCCC(C)C)[C@@]4(C)CC[C@@H]32)C1)C(=O)N[C@@H](Cc1ccc(O)cc1)C(=O)N[C@@H](CN)C(=O)N[C@@H](CCC(C)C)C(N)=O
Turning to B2, the “IC50, in vitro kinase assay PKB” value worked out at 1000 nM.

B3: PTR 6336 (peptide)
peptide: Cholesteryloxycarbonyl-GGGGGGRPR[Nva]Y[Dap][hLeu]-NH2
SMILES: CCC[C@H](NC(=O)[C@H](CCCNC(=N)N)NC(=O)[C@@H]1CCCN1C(=O)[C@H](CCCNC(=N)N)NC(=O)CNC(=O)CNC(=O)CNC(=O)CNC(=O)CNC(=O)CNC(=O)O[C@H]1CC[C@@]2(C)C(=CC[C@H]3[C@@H]4CC[C@H]([C@H](C)CCCC(C)C)[C@@]4(C)CC[C@@H]32)C1)C(=O)N[C@@H](Cc1ccc(O)cc1)C(=O)N[C@@H](CN)C(=O)N[C@@H](CCC(C)C)C(N)=O
Take B3: the “IC50, in vitro kinase assay PKB” value stood at 1000 nM.

B4: PTR 6368 (peptide)
peptide: H-RPH[Nva]Y[Dap][hLeu]-NH2
SMILES: CCC[C@H](NC(=O)[C@H](Cc1c[nH]cn1)NC(=O)[C@@H]1CCCN1C(=O)[C@@H](N)CCCNC(=N)N)C(=O)N[C@@H](Cc1ccc(O)cc1)C(=O)N[C@@H](CN)C(=O)N[C@@H](CCC(C)C)C(N)=O
With B4, the “IC50, in vitro kinase assay PKB” value was above 10000 nM.

B5: PTR 6376 (peptide)
peptide: Cholesteryloxycarbonyl-RPH[Nva]Y[Dap][hLeu]-NH2
SMILES: CCC[C@H](NC(=O)[C@H](Cc1c[nH]cn1)NC(=O)[C@@H]1CCCN1C(=O)[C@H](CCCNC(=N)N)NC(=O)O[C@H]1CC[C@@]2(C)C(=CC[C@H]3[C@@H]4CC[C@H]([C@H](C)CCCC(C)C)[C@@]4(C)CC[C@@H]32)C1)C(=O)N[C@@H](Cc1ccc(O)cc1)C(=O)N[C@@H](CN)C(=O)N[C@@H](CCC(C)C)C(N)=O
B5: the “IC50, in vitro kinase assay PKB” value was determined as 2000 nM.

B6: PTR 6352 (peptide)
peptide: Cholesteryloxycarbonyl-KKKRPR[Nva]Y[Dap][hLeu]-OH
SMILES: CCC[C@H](NC(=O)[C@H](CCCNC(=N)N)NC(=O)[C@@H]1CCCN1C(=O)[C@H](CCCNC(=N)N)NC(=O)[C@H](CCCCN)NC(=O)[C@H](CCCCN)NC(=O)[C@H](CCCCN)NC(=O)O[C@H]1CC[C@@]2(C)C(=CC[C@H]3[C@@H]4CC[C@H]([C@H](C)CCCC(C)C)[C@@]4(C)CC[C@@H]32)C1)C(=O)N[C@@H](Cc1ccc(O)cc1)C(=O)N[C@@H](CN)C(=O)N[C@@H](CCC(C)C)C(=O)O
Take B6: the “IC50, in vitro kinase assay PKB” value was found to be 200 nM.

B7: PTR 6346 (peptide)
peptide: Cholesteryloxycarbonyl-RPR[Nva]Y[Dap][hLeu][dK][dK][dK]-NH2
SMILES: CCC[C@H](NC(=O)[C@H](CCCNC(=N)N)NC(=O)[C@@H]1CCCN1C(=O)[C@H](CCCNC(=N)N)NC(=O)O[C@H]1CC[C@@]2(C)C(=CC[C@H]3[C@@H]4CC[C@H]([C@H](C)CCCC(C)C)[C@@]4(C)CC[C@@H]32)C1)C(=O)N[C@@H](Cc1ccc(O)cc1)C(=O)N[C@@H](CN)C(=O)N[C@@H](CCC(C)C)C(=O)N[C@H](CCCCN)C(=O)N[C@H](CCCCN)C(=O)N[C@H](CCCCN)C(N)=O
Take B7: the “IC50, in vitro kinase assay PKB” value is 200 nM.

B8: PTR 6372 (peptide)
peptide: H-RP[Orn][Nva]Y[Dap][hLeu]-NH2
SMILES: CCC[C@H](NC(=O)[C@H](CCCN)NC(=O)[C@@H]1CCCN1C(=O)[C@@H](N)CCCNC(=N)N)C(=O)N[C@@H](Cc1ccc(O)cc1)C(=O)N[C@@H](CN)C(=O)N[C@@H](CCC(C)C)C(N)=O
With B8, the “IC50, in vitro kinase assay PKB” value was above 10000 nM.

B9: PTR 6330 (peptide)
peptide: Cholesteryloxycarbonyl-GGGRPR[Nva]Y[Dap][hLeu]-NH2
SMILES: CCC[C@H](NC(=O)[C@H](CCCNC(=N)N)NC(=O)[C@@H]1CCCN1C(=O)[C@H](CCCNC(=N)N)NC(=O)CNC(=O)CNC(=O)CNC(=O)O[C@H]1CC[C@@]2(C)C(=CC[C@H]3[C@@H]4CC[C@H]([C@H](C)CCCC(C)C)[C@@]4(C)CC[C@@H]32)C1)C(=O)N[C@@H](Cc1ccc(O)cc1)C(=O)N[C@@H](CN)C(=O)N[C@@H](CCC(C)C)C(N)=O
On to B9, for which the “IC50, in vitro kinase assay PKB” value worked out at 1000 nM.

B10: PTR 6344 (peptide)
peptide: Cholesteryloxycarbonyl-KKKRPR[Nva]Y[Dap][hLeu]-NH2
SMILES: CCC[C@H](NC(=O)[C@H](CCCNC(=N)N)NC(=O)[C@@H]1CCCN1C(=O)[C@H](CCCNC(=N)N)NC(=O)[C@H](CCCCN)NC(=O)[C@H](CCCCN)NC(=O)[C@H](CCCCN)NC(=O)O[C@H]1CC[C@@]2(C)C(=CC[C@H]3[C@@H]4CC[C@H]([C@H](C)CCCC(C)C)[C@@]4(C)CC[C@@H]32)C1)C(=O)N[C@@H](Cc1ccc(O)cc1)C(=O)N[C@@H](CN)C(=O)N[C@@H](CCC(C)C)C(N)=O
Consider B10, for which the “IC50, in vitro kinase assay PKB” value is 300 nM.

B11: PTR 6338 (peptide)
peptide: Cholesteryloxycarbonyl-[dK][dK][dK][dK][dK][dK]RPR[Nva]Y[Ser(Me)][hLeu]-NH2
SMILES: CCC[C@H](NC(=O)[C@H](CCCNC(=N)N)NC(=O)[C@@H]1CCCN1C(=O)[C@H](CCCNC(=N)N)NC(=O)[C@@H](CCCCN)NC(=O)[C@@H](CCCCN)NC(=O)[C@@H](CCCCN)NC(=O)[C@@H](CCCCN)NC(=O)[C@@H](CCCCN)NC(=O)[C@@H](CCCCN)NC(=O)O[C@H]1CC[C@@]2(C)C(=CC[C@H]3[C@@H]4CC[C@H]([C@H](C)CCCC(C)C)[C@@]4(C)CC[C@@H]32)C1)C(=O)N[C@@H](Cc1ccc(O)cc1)C(=O)N[C@@H](COC)C(=O)N[C@@H](CCC(C)C)C(N)=O
Consider B11, for which the “IC50, in vitro kinase assay PKB” value was 100 nM.

B12: PTR 6324 (peptide)
peptide: Cholesteryloxycarbonyl-[dK][dK][dK][dK][dK]RPR[Nva]Y[Dap][hLeu]-NH2
SMILES: CCC[C@H](NC(=O)[C@H](CCCNC(=N)N)NC(=O)[C@@H]1CCCN1C(=O)[C@H](CCCNC(=N)N)NC(=O)[C@@H](CCCCN)NC(=O)[C@@H](CCCCN)NC(=O)[C@@H](CCCCN)NC(=O)[C@@H](CCCCN)NC(=O)[C@@H](CCCCN)NC(=O)O[C@H]1CC[C@@]2(C)C(=CC[C@H]3[C@@H]4CC[C@H]([C@H](C)CCCC(C)C)[C@@]4(C)CC[C@@H]32)C1)C(=O)N[C@@H](Cc1ccc(O)cc1)C(=O)N[C@@H](CN)C(=O)N[C@@H](CCC(C)C)C(N)=O
For B12, the “IC50, in vitro kinase assay PKB” value was found to be 100 nM.

B13: PTR 6326 (peptide)
peptide: Cholesteryloxycarbonyl-[dK][dK][dK][dK][dK][dK]RPR[Nva]Y[Dap][hLeu]-NH2
SMILES: CCC[C@H](NC(=O)[C@H](CCCNC(=N)N)NC(=O)[C@@H]1CCCN1C(=O)[C@H](CCCNC(=N)N)NC(=O)[C@@H](CCCCN)NC(=O)[C@@H](CCCCN)NC(=O)[C@@H](CCCCN)NC(=O)[C@@H](CCCCN)NC(=O)[C@@H](CCCCN)NC(=O)[C@@H](CCCCN)NC(=O)O[C@H]1CC[C@@]2(C)C(=CC[C@H]3[C@@H]4CC[C@H]([C@H](C)CCCC(C)C)[C@@]4(C)CC[C@@H]32)C1)C(=O)N[C@@H](Cc1ccc(O)cc1)C(=O)N[C@@H](CN)C(=O)N[C@@H](CCC(C)C)C(N)=O
For B13, the “IC50, in vitro kinase assay PKB” value amounted to 100 nM.

B14: PTR 6356 (peptide)
peptide: {Cholesteryl‑O‑CO‑(CH2)2‑CO}-[dK][dK][dK]RPR[Nva]Y[Dap][hLeu]-NH2
Take B14: the “IC50, in vitro kinase assay PKB” value amounted to 170 nM.

B15: PTR 6370 (peptide)
peptide: XPHXYXX
modifications: Nva, Dap, Hol; C-terminal NH2
Consider B15, for which the “IC50, in vitro kinase assay PKB” value is above 10000 nM.

B16: PTR 6348 (peptide)
peptide: Cholesteryloxycarbonyl-[dK][dK][dK]RPR[Nva]Y[Ser(Me)][hLeu]-NH2
SMILES: CCC[C@H](NC(=O)[C@H](CCCNC(=N)N)NC(=O)[C@@H]1CCCN1C(=O)[C@H](CCCNC(=N)N)NC(=O)[C@@H](CCCCN)NC(=O)[C@@H](CCCCN)NC(=O)[C@@H](CCCCN)NC(=O)O[C@H]1CC[C@@]2(C)C(=CC[C@H]3[C@@H]4CC[C@H]([C@H](C)CCCC(C)C)[C@@]4(C)CC[C@@H]32)C1)C(=O)N[C@@H](Cc1ccc(O)cc1)C(=O)N[C@@H](COC)C(=O)N[C@@H](CCC(C)C)C(N)=O
Consider B16, for which the “IC50, in vitro kinase assay PKB” value worked out at 200 nM.

B17: PTR 6374 (peptide)
peptide: XPRXYXX
modifications: N-terminal Cholesteryl-O-CO-; Nva, Dap, Hol; C-terminal NH2
For the molecule B17, the “IC50, in vitro kinase assay PKB” value stood at 1400 nM.

B18: PTR 6366 (peptide)
peptide: XPRXYXX
modifications: Nva, Dap, Hol; C-terminal NH2
Consider B18, for which the “IC50, in vitro kinase assay PKB” value is above 10000 nM.

B19: PTR 6334 (peptide)
peptide: Cholesteryloxycarbonyl-GGGGGRPR[Nva]Y[Dap][hLeu]-NH2
SMILES: CCC[C@H](NC(=O)[C@H](CCCNC(=N)N)NC(=O)[C@@H]1CCCN1C(=O)[C@H](CCCNC(=N)N)NC(=O)CNC(=O)CNC(=O)CNC(=O)CNC(=O)CNC(=O)O[C@H]1CC[C@@]2(C)C(=CC[C@H]3[C@@H]4CC[C@H]([C@H](C)CCCC(C)C)[C@@]4(C)CC[C@@H]32)C1)C(=O)N[C@@H](Cc1ccc(O)cc1)C(=O)N[C@@H](CN)C(=O)N[C@@H](CCC(C)C)C(N)=O
With B19, the “IC50, in vitro kinase assay PKB” value worked out at 1000 nM.
